From article PMC12830989, “Subcellular glycan-mannose receptor binding kinetics correlate with myeloid cell function” (Nature Communications, 2025) come the findings set out here.

The assay addresses T1, mannose receptor (MR) on CHO-MR cells (Mus musculus, UniProt Q61830).
T1 construct: expressed in transfected cells; host or cells: CHO (CHO-MR overexpression line, gift of Luisa Martinez-Pomares)
T1 sequence (Q61830 20-1456): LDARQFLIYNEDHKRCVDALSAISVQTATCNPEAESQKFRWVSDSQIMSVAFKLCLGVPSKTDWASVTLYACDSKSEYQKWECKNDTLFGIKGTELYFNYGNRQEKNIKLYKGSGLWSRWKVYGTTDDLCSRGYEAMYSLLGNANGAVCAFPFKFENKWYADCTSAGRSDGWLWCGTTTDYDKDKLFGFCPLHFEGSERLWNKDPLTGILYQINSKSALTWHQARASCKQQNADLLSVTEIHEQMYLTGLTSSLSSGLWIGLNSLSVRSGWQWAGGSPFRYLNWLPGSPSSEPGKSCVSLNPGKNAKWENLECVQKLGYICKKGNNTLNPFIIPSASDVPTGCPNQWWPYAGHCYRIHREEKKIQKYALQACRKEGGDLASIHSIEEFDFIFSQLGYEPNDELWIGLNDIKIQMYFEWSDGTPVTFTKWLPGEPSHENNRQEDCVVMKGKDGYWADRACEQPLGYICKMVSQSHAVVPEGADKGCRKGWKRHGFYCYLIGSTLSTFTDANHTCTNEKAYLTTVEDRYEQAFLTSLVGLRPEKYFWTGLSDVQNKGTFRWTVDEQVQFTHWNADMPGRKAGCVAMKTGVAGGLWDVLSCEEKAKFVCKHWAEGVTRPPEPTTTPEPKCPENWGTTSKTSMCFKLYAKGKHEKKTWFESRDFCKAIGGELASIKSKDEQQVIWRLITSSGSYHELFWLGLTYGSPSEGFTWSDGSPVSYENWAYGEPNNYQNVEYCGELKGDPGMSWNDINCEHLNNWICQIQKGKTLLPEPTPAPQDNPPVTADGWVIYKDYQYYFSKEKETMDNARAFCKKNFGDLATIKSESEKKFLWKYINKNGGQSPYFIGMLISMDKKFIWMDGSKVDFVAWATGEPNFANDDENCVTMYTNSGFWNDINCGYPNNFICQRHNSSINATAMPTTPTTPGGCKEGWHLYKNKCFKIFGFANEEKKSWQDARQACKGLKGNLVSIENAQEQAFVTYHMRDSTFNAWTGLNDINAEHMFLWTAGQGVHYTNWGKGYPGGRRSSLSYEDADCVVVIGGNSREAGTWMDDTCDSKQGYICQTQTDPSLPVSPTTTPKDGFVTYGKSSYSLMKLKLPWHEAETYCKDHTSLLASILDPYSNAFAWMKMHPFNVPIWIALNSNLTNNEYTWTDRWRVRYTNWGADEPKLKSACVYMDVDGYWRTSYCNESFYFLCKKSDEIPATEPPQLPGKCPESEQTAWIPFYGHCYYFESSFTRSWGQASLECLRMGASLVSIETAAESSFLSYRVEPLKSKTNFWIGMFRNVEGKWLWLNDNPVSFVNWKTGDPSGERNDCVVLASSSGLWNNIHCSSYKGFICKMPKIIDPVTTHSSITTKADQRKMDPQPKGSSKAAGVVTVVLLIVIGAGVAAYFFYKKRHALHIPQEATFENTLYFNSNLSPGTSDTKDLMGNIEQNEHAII
Description: Glyco-PAINT-APP single-molecule glycan binding on CHO-MR cells. To be noted: Suppl. Fig 9, glycan SLP, median. The method, then: Single molecule imaging was performed on a Nikon Ti2 N-STORM system equipped with TIRF module, Z piezo element, perfect focus system for axial drift correction and an OkoLab incubator with temperature and CO2 controller (37 °C and 5% CO2) for live-cell imaging. Recordings were acquired using the 647 nm excitation laser (160 mW, 1.9 kW/cm^2). Upon laser excitation, fluorescence was collected by a 100x 1.49 NA oil-immersion objective, passed through a quad-band dichroic mirror (97335 Nikon), and detected by a Hamamatsu ORCA Flash 4.0 CMOS camera with 160 nm pixel size. The signal was collected using the following settings: 512 × 512 pixel region, no binning, pixel depth 16-bit, exposure time 50 ms, live-cell observation and 2D-STORM (lens out), zoom 1x, lens x0.4, and for live-cell observation at 37 °C, the correction collar was set to position 8160.
5 x 10^4 CHO-MR or 1 x 10^5 WT, MR^−/− BMDC or BMDM were seeded in 8-well glass-bottomed microscopy slides (Ibidi, 80827) in complete medium. After equilibration in the microscope incubator, fluorescent glycan was added at 5 nM for CHO-MR and 10 nM for BMDC or BMDM experiments. Then, cells were brought into focus using brightfield illumination and 2000 frames (at 50 ms intervals) were recorded within a single field-of-view at 40–60% of maximum 647 nm laser power using TIRF illumination. For indicated experiments, Cytochalasin D (Focus Biomolecules) was added to a final concentration of 10 µM for 30 min prior to acquisition.
Processing of recordings using Glyco-PAINT-APP was performed as described in a step-by-step procedure in the Supplementary Software Manual in the Supplementary Information and accompanying Supplementary Videos 1 and 2. For the TrackMate processing, a batch file (Experiment Info.csv) containing the experiment metadata and tracking parameters was created. Threshold values were set to 5, 10 or 15 such that no more than 1.500.000 spots were detected. Recordings were then processed in TrackMate using the ‘Run TrackMate Batch’ plugin provided by the Glyco-PAINT-APP. Through this plugin, spot detection and tracking by TrackMate[70] was performed as indicated in the batch file using the Simple LAP tracker algorithm with a maximum frame gap of 3, a max linking distance of 0.6 μm and a gap closing max distance of 1.2 μm. Tracks with only two spots were discarded. For the parameter sensitivity analysis, each tracking or spot detection was varied as indicated, whilst the others were kept at aforementioned values (Basis scenario).
With the Glyco-PAINT-APP utility ‘Generate Squares’, a grid of squares was overlaid, and kinetic properties for each square were calculated. Default parameters for grid processing are (deviations are mentioned in figure captions): Nr of Squares in row 20, Minimum Tracks to Calculate Tau 20, Min allowable R Squared 0.1, Min Required Density Ratio 2, Maximum Allowable Variability 10 and Neighbour Mode Free.
For every recording, a background track count was calculated by averaging the track count of the 40 (10% of the total number of squares) least dense squares. Only squares for which the track count exceeded the Min Required Density Ratio of 2 were considered (and the remaining ignored as background). For each square, the variability was calculated and only squares for which the variability was less than the Maximum Allowable Variability of 10 were considered. For squares meeting both the Minimum Required Density Ratio and Maximum Allowable Variability criteria, and containing at least the Minimum Tracks to Calculate Tau kinetic parameters, including kon, koff and MSD were calculated as in Riera et al.[10], or copied from the TrackMate Tracks table output (for velocity, displacement, and track duration).

sCy5 = sulfo-Cy5

As to “Ac-Lys(triMan)-Lys(triMan)-Lys(triMan)-Lys(triMan)-Lys(triMan)-Lys(triMan)-TEG-Asp-Glu-Val-Ser-Gly-Leu-Glu-Gln-Leu-Glu-Ser-Ile-Ile-Asn-Phe-Glu-Lys-Leu-Ala-Ala-Ala-Ala-Ala-Lys(sCy5)-NH2 (DEVSGLEQLESIINFEKLAAAAAK; six Lys(triMan), TEG, sulfo-Cy5, C-amide; printed: Asp-Glu-Val-Ser-Gly-Leu-Glu-Gln-Leu-Glu-Ser-Ile-Ile-Asn-Phe-Glu-Lys-Leu-Ala-Ala-Ala-Ala-Ala-Lys) [6 Tri(6), hexavalent trimannosylated OVA SLP with sulfo-Cy5]”, the “koff−1” value is, setting by setting: (CHO-MR + CytD) 85 ms; (CHO-MR) 101 ms. The kon (CHO-MR + CytD) was found to be 4.8 evts μm−2 sec−1 and the kon (CHO-MR) worked out at 6.2 evts μm−2 sec−1.

Take “Ac-Lys(Man)-Gly-Lys(Man)-TEG-Asp-Glu-Val-Ser-Gly-Leu-Glu-Gln-Leu-Glu-Ser-Ile-Ile-Asn-Phe-Glu-Lys-Leu-Ala-Ala-Ala-Ala-Ala-Lys(sCy5)-NH2 ({Ac-K(Man)-Gly-K(Man)-TEG}-DEVSGLEQLESIINFEKLAAAAAK(sCy5)-NH2) [2 Mono(2), bivalent monomannosylated OVA SLP with sulfo-Cy5]”: for the setting “CHO-MR + CytD”, the “koff−1” value worked out at 85 ms and the kon is listed as 8.2 evts μm−2 sec−1. Under “CHO-MR”, the “koff−1” value was 91 ms and the kon is 6.2 evts μm−2 sec−1.

In the case of “Ac-Lys(triMan)-Gly-Lys(triMan)-TEG-Asp-Glu-Val-Ser-Gly-Leu-Glu-Gln-Leu-Glu-Ser-Ile-Ile-Asn-Phe-Glu-Lys-Leu-Ala-Ala-Ala-Ala-Ala-Lys(sCy5)-NH2 (DEVSGLEQLESIINFEKLAAAAAK; two Lys(triMan), TEG, sulfo-Cy5, C-amide; printed: Asp-Glu-Val-Ser-Gly-Leu-Glu-Gln-Leu-Glu-Ser-Ile-Ile-Asn-Phe-Glu-Lys-Leu-Ala-Ala-Ala-Ala-Ala-Lys) [2 Tri(5), bivalent trimannosylated OVA SLP with sulfo-Cy5]”, where the note is “CHO-MR + CytD”, the “koff−1” value was 108 ms and the kon was 4.6 evts μm−2 sec−1. Moreover, under “CHO-MR”, the “koff−1” value is given as 117 ms and the kon worked out at 5 evts μm−2 sec−1.

Consider “Ac-Lys(triMan)-TEG-Asp-Glu-Val-Ser-Gly-Leu-Glu-Gln-Leu-Glu-Ser-Ile-Ile-Asn-Phe-Glu-Lys-Leu-Ala-Ala-Ala-Ala-Ala-Lys(sCy5)-NH2 (DEVSGLEQLESIINFEKLAAAAAK; Ac-Lys(triMan)-TEG, sulfo-Cy5, C-amide; printed: Asp-Glu-Val-Ser-Gly-Leu-Glu-Gln-Leu-Glu-Ser-Ile-Ile-Asn-Phe-Glu-Lys-Leu-Ala-Ala-Ala-Ala-Ala-Lys) [1 Tri(4), monovalent trimannosylated OVA SLP with sulfo-Cy5]”, for which, where the note is “CHO-MR + CytD”, the “koff−1” value is listed as 144 ms and the kon stood at 7.1 evts μm−2 sec−1. Moreover, where the note is “CHO-MR”, the “koff−1” value is 79 ms and the kon is 2.8 evts μm−2 sec−1.

“Ac-Lys(Man)-Lys(Man)-Lys(Man)-Lys(Man)-Lys(Man)-Lys(Man)-TEG-Asp-Glu-Val-Ser-Gly-Leu-Glu-Gln-Leu-Glu-Ser-Ile-Ile-Asn-Phe-Glu-Lys-Leu-Ala-Ala-Ala-Ala-Ala-Lys(sCy5)-NH2 ({Ac-K(Man)-K(Man)-K(Man)-K(Man)-K(Man)-K(Man)-TEG}-DEVSGLEQLESIINFEKLAAAAAK(sCy5)-NH2) [6 Mono(3), hexavalent monomannosylated OVA SLP with sulfo-Cy5]”: under “CHO-MR + CytD”, the “koff−1” value is on record as 115 ms and the kon turned out to be 8.9 evts μm−2 sec−1. Under “CHO-MR”, the “koff−1” value was 117 ms and the kon came out at 5.2 evts μm−2 sec−1.

In the case of “Ac-Lys(Man)-TEG-Asp-Glu-Val-Ser-Gly-Leu-Glu-Gln-Leu-Glu-Ser-Ile-Ile-Asn-Phe-Glu-Lys-Leu-Ala-Ala-Ala-Ala-Ala-Lys(sCy5)-NH2 ({Ac-K(Man)-TEG}-DEVSGLEQLESIINFEKLAAAAAK(sCy5)-NH2) [1 Mono(1), monovalent monomannosylated OVA SLP with sulfo-Cy5]”, for the setting “CHO-MR + CytD”, the “koff−1” value worked out at 63 ms and the kon came out at 3.9 evts μm−2 sec−1. In addition, for the setting “CHO-MR”, the “koff−1” value is listed as 68 ms and the kon is listed as 3.8 evts μm−2 sec−1.
